The test addresses recombinant EGF (rEGF) protein with SV5 and 6xHis tags (human). Nature of the test: ELISA; titration ELISA: plates coated with rEGF at 5 µg/mL (BSA coating for negative controls, at the maximum tested nanobody concentration), blocked with 3% skimmed milk, biotinylated nanobodies serially diluted 1 h at RT, detected with streptavidin-HRP; KD estimated by the fitting function of ref. 37; triplicates.

B1: recombinant anti-EGF nanobody D6-4, biotinylated (VHH)
VHH: QVQLVESGGGSVQAGGSLRLSCTASGTRRYKYNVFDLGWFRQAPGQEREAVAAISTGGGRTYYADSVKGRFTISRDNAKNTVTLQMNNLKPEDTAIYYCAARRTNNANFRYWGQGTQVTVS
What is called Kd is the concentration at which binding is half-saturated. For the molecule B1, the Kd was 370 nM.

B2: recombinant anti-EGF nanobody A8-1, biotinylated (VHH)
VHH: QVQLVESGGGSVQAGGSLRLSCTASGNSNYQYPHFDLGWFRQAPGQEREAVAAISSGGGRTYYADSVKGRFTISRDNAKNTVTLQMNNLKPEDTAIYYCAAVGSRTRNYRYWGQGTQVTVS
As for B2, the dissociation constant Kd is 240 nM.

The values are drawn from PMC10223678.
